For 64 variants, self-cleavage results are on record in the RNAGym collection of RNA variant scans (doi:10.7554/elife.80360).

B1: HDV Ribozyme (parent)
chain: GGCCGGCAUGGUCCCAGCCUCCUCGCUGGCGCCGGCUGGGCAACAUUCCGAGGGGACCGUCCCCUCGGUAAUGGCGAAUGGGACCCA

In the data set the parent is B1. The experiment in a line: self-cleavage, relative activity (ratio to wild type); higher = more cleavage; co-transcriptional.
As to GGCCGGCAUGGCCCCAGCCUCCUCGCUGGCGCCGGCUGGUCAACAUUCCGAGGGGACCGUCCCCUCGGUAAUGGCGAAUGGGACCCA, the self-cleavage is 0.0627.

Turning to GGCCGGCAUGGCCCCAGCCUCCUCGCUGGCGCCGGCUGGACAACAUUCCGAGGGGACCGUCCCCUCGGUAAUGGCGAAUGGGACCCA, the self-cleavage came out at 0.305.

GGCCGGCAUGGCUCCAGCCUCCUCGCUGGCGCCGGCUGGGCAACAUUCCGAGGGGACCGUCCCCUCGGUAAUGGCGAAUGGGACCCA: the self-cleavage was 0.

With GGCCGGCAUGGCGCCAGCCUCCUCGCUGGCGCCGGCUGGGCAACAUUCCGAGGGGACCGUCCCCUCGGUAAUGGCGAAUGGGACCCA, the self-cleavage amounted to 0.

For the variant GGCCGGCAUGGCACCAGCCUCCUCGCUGGCGCCGGCUGGGCAACAUUCCGAGGGGACCGUCCCCUCGGUAAUGGCGAAUGGGACCCA, the self-cleavage stood at 0.0665.

Turning to GGCCGGCAUGGCCCCAGCCUCCUCGCUGGCGCCGGUUGGGCAACAUUCCGAGGGGACCGUCCCCUCGGUAAUGGCGAAUGGGACCCA, the self-cleavage worked out at 0.107.

On to GGCCGGCAUGGCCCCAGCCUCCUCGCUGGCGCCGGCUGGGCAACAUUACGAGGGGACCGUCCCCUCGGUAAUGGCGAAUGGGACCCA, for which the self-cleavage stood at 0.762.

Take GGCCGGCAUGGCCCCAGCCUCCUCGCUGGCGCCGGCUGGGCAACAUUGCGAGGGGACCGUCCCCUCGGUAAUGGCGAAUGGGACCCA: the self-cleavage came out at 0.185.

As for GGCCGGCAUGGGCCCAGCCUCCUCGCUGGCGCCGGCUGGGCCACAUUCCGAGGGGACCGUCCCCUCGGUAAUGGCGAAUGGGACCCA, the self-cleavage was found to be 0.217.

On to GGCCGGCAUGGGCCCAGCCUCCUCGCUGGCGCCGGCUGGGCAUCAUUCCGAGGGGACCGUCCCCUCGGUAAUGGCGAAUGGGACCCA, for which the self-cleavage is 0.0639.

Regarding GGCCGGCAUGGGCCCAGCCUCCUCGCUGGCGCCGGCUGGGCAGCAUUCCGAGGGGACCGUCCCCUCGGUAAUGGCGAAUGGGACCCA, the self-cleavage was 0.237.

As to GGCCGGCAUGGCCCCAGCCUCCUCGCUGGCGCCGGCUGGGCAACAUUCCGAGGGGACCGUCCCCUCGGUUAUGGCGAAUGGGACCCA, the self-cleavage worked out at 0.378.

In the case of GGCCGGCAUGGCCCCAGCCUCCUCGCUGGCGCUGGCUGGGCAACAUUCCGAGGGGACCGUCCCCUCGGUAAUGGCGAAUGGGACCCA, the self-cleavage stood at 0.32.

As for GGCCGGCAUGGCCCCAGCCUCCUCGCUGGCGCGGGCUGGGCAACAUUCCGAGGGGACCGUCCCCUCGGUAAUGGCGAAUGGGACCCA, the self-cleavage came out at 0.101.

As for GGCCGGCAUGGCCCCAGCCUCCUCGCUGGCGCCGGCUUGGCAACAUUCCGAGGGGACCGUCCCCUCGGUAAUGGCGAAUGGGACCCA, the self-cleavage is 0.0739.

For the variant GGCCGGCAUGGGCCCAGCCUCCUCGCUGGCGCCGGCUGGGCAACAUUCCGAGGGGACCGUCCCCUCGGUAAUGGCGAAUGGGGCCCA, the self-cleavage came to 0.89.

Consider GGCCGGCAUGGCCCCAGCCUCCUCGCUGGCGCCGGCUGGGCAACAUUCCGAGGGGCCCGUCCCCUCGGUAAUGGCGAAUGGGACCCA, for which the self-cleavage stood at 0.453.

For the variant GGCCGGCAUGGCCCCAGCCUCCUCGCUGGCGCCGGCUGGGCAACAUUCCGAGGGGUCCGUCCCCUCGGUAAUGGCGAAUGGGACCCA, the self-cleavage stood at 0.499.

On to GGCCGGCAUGGGCCCGGCCUCCUCGCUGGCGCCGGCUGGGCAACAUUCCGAGGGGACCGUCCCCUCGGUAAUGGCGAAUGGGACCCA, for which the self-cleavage was 1.06.

In the case of GGCCGGCAUGGGCCCAGCCUCCUCGCUGGCGCCGGCUGGGCAACAUUCCGAGGGGACCGUCCCCUCGGUAAUGGCGAUUGGGACCCA, the self-cleavage was 0.

GGCCGGCAUGGCCCCAGCCUCCUCGCUGGCGCCGGCUGGGCAACAUUCCGAGGGGACCGUCCCCUCGGUAAUGGCGAAUGGGACCAA: the self-cleavage worked out at 0.864.

With GGCCGGCAUGGCCCCAGCCUCCUCGCUGGCGCCGGCUGGGCAACAUUCCGAGGGGACCGUCCCCUCGGUAAAGGCGAAUGGGACCCA, the self-cleavage worked out at 0.107.

On to GGCCGGCAUGGCCCCAGCCUCCUCGCUGGCGCCGGCUGGGCAACAUUCCGAGGGGACCGUCCCCUCGGAAAUGGCGAAUGGGACCCA, for which the self-cleavage was 0.166.

For the variant GGCCGGCAUGGGCCCAGCCUCCUCGCUGGCGCCGGCUGGGCAACAUUCCGAGGGGACCGUCCCCUCGGUAUUGGCGAAUGGGACCCA, the self-cleavage is 0.791.

For GGCCGGCAUGGCCCCAGCCUCCUCGCUGGCGCCGGCUGGGCAACAUUCCGAGGGGACCGUCCCCUCGGUAAUGGCGAACGGGACCCA, the self-cleavage came to 0.133.

Regarding GGCCGGCAUGGCCCCAGCCUCCUCGCUGGCGCCGGCUGGGCAACAUUCCGAGGGGACCGUCCCCUCGGUAAUGGCGAAGGGGACCCA, the self-cleavage came out at 0.0791.

Take GGCCGGCAUGGCCCCAGCCUCCUCGCUGGCGCCGGCUGGGCAACAUUCCGAGGGGACCGUCCCCUCGGUAAUGGCGAAAGGGACCCA: the self-cleavage turned out to be 0.0615.

Regarding GGCCGGCAUGGCCCCAGCCUCCUCGCUGGCGCCGGCUGGGCAACAUUCCGAGGGGACCGUCCCCUCGGUAAUCGCGAAUGGGACCCA, the self-cleavage amounted to 0.116.

As to GGCCGGCAUGGCCCCAGCCUCCUCGCUGGCGCCGGCUGGGCAACAUUCCGAGGGGACCGUCCCCUCAGUAAUGGCGAAUGGGACCCA, the self-cleavage amounted to 0.229.

On to GGCCGGCAUGGCCCCAGCCUCCUCGCUGGCGCCGGCUGGGCAACAUUCCGAGGGGACCGUCCCCUCCGUAAUGGCGAAUGGGACCCA, for which the self-cleavage came to 0.256.

GGCCGGCAUGGCCCCAGCCUCCUCGCUGGCGCCGGCUGGGCAACAUUCCGAGGGGACCGUCCCCUCGGUAAUGGCGAAUGCGACCCA: the self-cleavage is 0.18.

As for GGCCGGCAUGGCCCCAGCCUCCUCGCUGGCGCCGGCUGGGCAACAUUCCGAGGGGACCGUCCACUCGGUAAUGGCGAAUGGGACCCA, the self-cleavage is 0.268.

GGCCGGCAUGGCCCCAGCCUCCUCGCUGGCGCCGGCUGGGCAACAUUCCGAGGGGACCGUCCUCUCGGUAAUGGCGAAUGGGACCCA: the self-cleavage was found to be 0.389.

In the case of GGCCGGCAUGGCCCCAGCCUCCUCGCUGGCGCCGGCUGGGCAACAUGCCGAGGGGACCGUCCCCUCGGUAAUGGCGAAUGGGACCCA, the self-cleavage came to 0.119.

Take GGCCGGCAUGGCCCCAUCCUCCUCGCUGGCGCCGGCUGGGCAACAUUCCGAGGGGACCGUCCCCUCGGUAAUGGCGAAUGGGACCCA: the self-cleavage is 0.308.

In the case of GGCCGGCAUGGCCCCAGCCUCCUCGCUGGCGCCGGCUGGGCAACAUUCCGAGGGGACCGUCCCCUGGGUAAUGGCGAAUGGGACCCA, the self-cleavage was found to be 0.356.

For GGCCGGCAUGGCCCCAGCCUCCUCGCUGGCGCCGGCUGGGCAACAUUCCCAGGGGACCGUCCCCUCGGUAAUGGCGAAUGGGACCCA, the self-cleavage turned out to be 0.434.

For the variant GGCCGGCAUGGCCCCAGCCUCCUCGCUGGCGCCGGCUGGGCAACAUUCCGAGGAGACCGUCCCCUCGGUAAUGGCGAAUGGGACCCA, the self-cleavage was found to be 0.862.

In the case of GGCCGGCAUGGCCCCAGCAUCCUCGCUGGCGCCGGCUGGGCAACAUUCCGAGGGGACCGUCCCCUCGGUAAUGGCGAAUGGGACCCA, the self-cleavage stood at 0.0361.

Turning to GGCCGGCAUGGGCCCAGCCUCCUCGCUGGCGCCGGCUGGGCAACAUUCCGAGGGGACCGUCCCCUCGGUGAUGGCGAAUGGGACCCA, the self-cleavage was found to be 1.04.

Regarding GGCCGGCAUGGCCCCAGCCUCCUCGCGGGCGCCGGCUGGGCAACAUUCCGAGGGGACCGUCCCCUCGGUAAUGGCGAAUGGGACCCA, the self-cleavage was 0.312.

In the case of GGCCGGCAUGGCCCCAGCCUCCUCGCUGGCGCCGGCUGGGCAACAUUCCGAGGGGACCGUCCCCUCGAUAAUGGCGAAUGGGACCCA, the self-cleavage stood at 0.231.

Take GGCCGGCAUGGCCCCAGCCUCCUCGCUGGCGCCGGCUGGGCAACAUUCCGAGGGGACCGUCCCCUCGCUAAUGGCGAAUGGGACCCA: the self-cleavage was found to be 0.145.

Consider GGCCGGCAUGGCCCCAGCCUCCUCCCUGGCGCCGGCUGGGCAACAUUCCGAGGGGACCGUCCCCUCGGUAAUGGCGAAUGGGACCCA, for which the self-cleavage is 0.0923.

As to GGCCGGCAUGGCCCCAGCCUCCUCACUGGCGCCGGCUGGGCAACAUUCCGAGGGGACCGUCCCCUCGGUAAUGGCGAAUGGGACCCA, the self-cleavage was determined as 0.17.

Consider GGCCGGCAUGGCCCCAGCCUCCUCGCUGGCGCCGGCUGGGCAACAUUCCGAGGGGACCGUCCCCUCGGUAAUGGCGAGUGGGACCCA, for which the self-cleavage was found to be 0.192.

As to GGCCGGCAUGGCCCCAGACUCCUCGCUGGCGCCGGCUGGGCAACAUUCCGAGGGGACCGUCCCCUCGGUAAUGGCGAAUGGGACCCA, the self-cleavage turned out to be 0.0739.

With GGCCGGCAUGGGCCCAGCCUCCUCGCUGGCGCCGGCUGGGCAACUUUCCGAGGGGACCGUCCCCUCGGUAAUGGCGAAUGGGACCCA, the self-cleavage worked out at 0.684.

As to GGCCGGCAUGGCCCCAGCCUCCUCGCUGGCGCCGGCUGGGCAACAUUCCGAGGGGACCGUCCCCUCGGUAAUGUCGAAUGGGACCCA, the self-cleavage stood at 0.0692.

Regarding GGCCGGCAUGGCCCCAGCCUCCUCGCUGGCGCCGGCUGGGCAACAUUCCGGGGGGACCGUCCCCUCGGUAAUGGCGAAUGGGACCCA, the self-cleavage turned out to be 0.369.

For the variant GGCCGGCAUGGCCCCAGCCUCCUCGCUGGCGCCGGCUGGGCAACAUUCCGCGGGGACCGUCCCCUCGGUAAUGGCGAAUGGGACCCA, the self-cleavage came to 0.378.

Take GGCCGGCAUGGCCCCAGCCUCCUCGGUGGCGCCGGCUGGGCAACAUUCCGAGGGGACCGUCCCCUCGGUAAUGGCGAAUGGGACCCA: the self-cleavage is 0.914.

For the variant GGCCGGCAUGGCCCCAGCCUCCUCGCUGGCGCCGGCUGGGCAACAUUCCGAGGGGACCGUCCCCUCGGUAAUGGCGAAUGGGACCCU, the self-cleavage stood at 0.396.

In the case of GGCCGGCAUGGCCCCAGCCUCCUCGCUGGCGCCGGCUGGGCAACAUUCCGAGGGGAGCGUCCCCUCGGUAAUGGCGAAUGGGACCCA, the self-cleavage turned out to be 0.0831.

Take GGCCGGCAUGGCCCCAGCCUCCUCGCUGGCGCCGGCUGGGCAAUAUUCCGAGGGGACCGUCCCCUCGGUAAUGGCGAAUGGGACCCA: the self-cleavage was 0.0692.

As for GGCCGGCAUGGCCCCAGCCUCCUCGCUUGCGCCGGCUGGGCAACAUUCCGAGGGGACCGUCCCCUCGGUAAUGGCGAAUGGGACCCA, the self-cleavage was found to be 0.0378.

On to GGCCGGCAUGGCCCCAGCCUCCUCGCUGGCGCCGGCUGGGCAACAUUCCGAGGGGACCGUCCCCUCGGUAUUGGCGAAUGGGACCCA, for which the self-cleavage stood at 0.453.

GGCCGGCAUGGCCCCAGCCUCCUCGCUGGCGCCGGCUGGGCAACAUUCCGAGAGGACCGUCCCCUCGGUAAUGGCGAAUGGGACCCA: the self-cleavage stood at 0.369.

In the case of GGCCGGCAUGGCCCCAGCCUCCUCGCUGGGGCCGGCUGGGCAACAUUCCGAGGGGACCGUCCCCUCGGUAAUGGCGAAUGGGACCCA, the self-cleavage was determined as 0.0573.

As to GGCCGGCAUGGCCCCAGCCUCCUCGCUGGCGCCGGCUGGGCAACAUUCCGAGGGGACCGUCACCUCGGUAAUGGCGAAUGGGACCCA, the self-cleavage worked out at 0.57.

For the variant GGCCGGCAUGGCCCCAGCCUCCUCGCUGGCGCCGGCUGGGCAACAUUCCGAGGGGACCGUCUCCUCGGUAAUGGCGAAUGGGACCCA, the self-cleavage worked out at 0.348.

For GGCCGGCAUGGCCCCAGCCUCCUCGCUGGCGCCGGCUGGGCAACAUUCCGAGGGGACCGUCCCCUCGGUAAUGGCGAAUGGAACCCA, the self-cleavage worked out at 0.0923.

With GGCCGGCAUGGCCCCAGCCUCCUCGCUGGCGCCGGCUGGGCAACAUUCCGAGGGGACCGUCCCCUCGGUAAUGGCGAAUGGUACCCA, the self-cleavage is 0.104.

On to GGCCGGCAUGGCCCCAGCCUCCUCGCUGGCGCCGGCUGGGCAACAUUCCGAGGGGACCGUACCCUCGGUAAUGGCGAAUGGGACCCA, for which the self-cleavage came out at 0.511.
